Laboratory results taken from paper PMC7181051, “Probing the Protein-Protein Interaction between the ATRXADD Domain and the Histone H3 Tail” (Molecules, 2020).
Where no end group is shown, it is not given here. [ ]: non-standard residue; d: D form. Lys(Me3) = C[N+](C)(C)CCCC[C@H](N)C(=O)O

T1: ADD domain of ATRX (ATRXADD) (UniProt P46100 159-296)
T1 construct: ATRX, N-terminal ADD (ATRX-DNMT3-DNMT3L) domain; plasmid pGEX-GP-2-ATRX ADD from Addgene; that it comes from the GST fusion and not from the His-tagged one is surmised; also called ATRX-DNMT3-DNMT3L domain; source: E. coli BL21, purified (spin column, on-column thrombin cleavage)
T1 sequence (looked up): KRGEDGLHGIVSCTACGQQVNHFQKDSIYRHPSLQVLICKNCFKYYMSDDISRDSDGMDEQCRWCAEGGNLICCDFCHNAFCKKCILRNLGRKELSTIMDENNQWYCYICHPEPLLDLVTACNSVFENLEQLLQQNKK


Molecular target: T1, ADD domain of ATRX (ATRXADD)
Assay: fluorescence polarisation; competition: ATRXADD (5 μM) and H3_(1-15)K9me3-FAM (0.75 μM) incubated 15 minutes at room temperature, then unlabeled peptide at varying concentrations; PBS; 384-well plate
Conditions: both partners purified

IC50 | Binder
≥ 100 µM | ART[Lys(Me3)]QTAR[Lys(Me3)]ST (histone H3 tail; source: bought: GenScript) [H3_(1-11)K4me3K9me3 peptide]
4.3 ± 0.8 µM | VRTKQTAR[Lys(Me3)]ST (histone H3 tail with A1 replaced; source: bought: GenScript) [H3_(1-11) A1V peptide]
94.8 ± 4.6 µM | ARTKQTARKS (histone H3 tail; source: bought: GenScript) [H3_(1-10) peptide]

The next lines start with the binder.

Binder | IC50
ARTKQTARKST (trimethyl-lysine at 9, printed K(me3), histone H3 tail; source: bought: GenScript) [H3_(1-11)K9me3 peptide] | 7.6 ± 1.4 µM
LRTKQTAR[Lys(Me3)]ST (histone H3 tail with A1 replaced; source: bought: GenScript) [H3_(1-11) A1L peptide] | 5.05 ± 0.7 µM
ARTKQTARKSTGGKAY (histone H3 tail; source: bought: GenScript) [H3_(1-16) peptide] | 85.8 ± 19.3 µM
